Test results taken from PMC9482650, “Quantitative fragmentomics allow affinity mapping of interactomes” (Nature Communications, 2022).

T1: PDZD7_3, Q9H5P4
T1 sequence (Q9H5P4 857-944, limits assumed, looked up): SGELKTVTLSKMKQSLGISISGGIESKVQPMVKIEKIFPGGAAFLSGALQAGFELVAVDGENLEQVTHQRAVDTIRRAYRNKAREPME

T2: MPDZ_10, O75970
T2 sequence (O75970 1624-1722, limits assumed, looked up): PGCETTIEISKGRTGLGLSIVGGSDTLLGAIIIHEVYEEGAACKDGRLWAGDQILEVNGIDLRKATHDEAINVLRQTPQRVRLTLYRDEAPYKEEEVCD

T3: SYNJ2BP, P57105
T3 sequence (P57105 8-110, limits assumed, looked up): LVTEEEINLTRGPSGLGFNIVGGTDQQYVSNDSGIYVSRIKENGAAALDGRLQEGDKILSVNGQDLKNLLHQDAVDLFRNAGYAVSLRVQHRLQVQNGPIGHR

T4: SNTG1, Q9NSN8
T4 sequence (Q9NSN8 52-150, limits assumed, looked up): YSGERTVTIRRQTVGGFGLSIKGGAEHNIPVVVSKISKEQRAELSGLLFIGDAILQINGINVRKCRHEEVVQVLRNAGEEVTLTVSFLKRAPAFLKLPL

T5: FRMPD1, Q5SYB0
T5 sequence (Q5SYB0 52-145, limits assumed, looked up): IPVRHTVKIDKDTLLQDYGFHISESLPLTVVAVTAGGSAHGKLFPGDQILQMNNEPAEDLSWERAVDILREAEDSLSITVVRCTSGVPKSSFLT

T6: SNTB1, Q13884
T6 sequence (Q13884 107-205, limits assumed, looked up): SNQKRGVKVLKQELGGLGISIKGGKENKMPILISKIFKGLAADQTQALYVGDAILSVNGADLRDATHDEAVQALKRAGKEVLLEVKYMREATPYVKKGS

T7: SNTG2, Q9NY99
T7 sequence (Q9NY99 68-166, limits assumed, looked up): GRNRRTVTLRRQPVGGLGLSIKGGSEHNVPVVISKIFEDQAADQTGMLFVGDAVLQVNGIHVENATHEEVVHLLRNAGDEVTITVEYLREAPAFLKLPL

T8: GRIP1_4, Q9Y3R0
T8 sequence (Q9Y3R0 467-571, limits assumed, looked up): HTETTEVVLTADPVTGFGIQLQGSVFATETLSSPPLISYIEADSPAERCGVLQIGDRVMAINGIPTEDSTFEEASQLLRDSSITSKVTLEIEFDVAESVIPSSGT

T9: TIAM2, Q8IVF5
T9 sequence (Q8IVF5 885-986, limits assumed, looked up): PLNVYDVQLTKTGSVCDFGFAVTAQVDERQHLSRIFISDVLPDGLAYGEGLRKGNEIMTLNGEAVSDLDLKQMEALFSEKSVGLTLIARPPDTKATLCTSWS

T10: TJP3_3, O95049
T10 sequence (O95049 375-456, limits assumed, looked up): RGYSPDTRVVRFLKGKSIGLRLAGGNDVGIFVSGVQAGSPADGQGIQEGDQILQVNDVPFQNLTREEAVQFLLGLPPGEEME

T11: HTRA4, P83105
T11 sequence (P83105 378-476, limits assumed, looked up): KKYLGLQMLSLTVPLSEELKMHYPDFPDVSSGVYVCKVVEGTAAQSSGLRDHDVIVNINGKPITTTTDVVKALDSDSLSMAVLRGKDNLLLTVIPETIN

T12: PARD3B_1, Q8TEW8
T12 sequence (Q8TEW8 196-299, limits assumed, looked up): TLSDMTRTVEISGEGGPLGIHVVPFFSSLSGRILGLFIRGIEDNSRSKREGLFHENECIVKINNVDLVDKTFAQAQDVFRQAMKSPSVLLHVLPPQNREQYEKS


Experiments:
Test in all cases: holdup assay
Parameters in all cases: key: below the threshold = too weak to quantify, mostly under pKd 3.1 to 4
Settings in all cases: plain residues with an end cap or a label only (N-terminal biotin on a linker: ttds)
GRASP, Q7Z6J2 = molecular target: GRASP, Q7Z6J2
PDZD7_3, Q9H5P4 = molecular target: T1, PDZD7_3, Q9H5P4
MAGI1_2, Q96QZ7 = molecular target: MAGI1_2, Q96QZ7
DLG4_1, P78352 = molecular target: DLG4_1, P78352
DLG4_3, P78352 = molecular target: DLG4_3, P78352
MPDZ_10, O75970 = molecular target: T2, MPDZ_10, O75970
SNX27, Q96L92 = molecular target: SNX27, Q96L92
GRID2IP_1, A4D2P6 = molecular target: GRID2IP_1, A4D2P6
SYNJ2BP, P57105 = molecular target: T3, SYNJ2BP, P57105
SNTG1, Q9NSN8 = molecular target: T4, SNTG1, Q9NSN8
MAGI2_2, Q86UL8 = molecular target: MAGI2_2, Q86UL8
FRMPD1, Q5SYB0 = molecular target: T5, FRMPD1, Q5SYB0
SNTB1, Q13884 = molecular target: T6, SNTB1, Q13884
MAGI2_4, Q86UL8 = molecular target: MAGI2_4, Q86UL8
SNTG2, Q9NY99 = molecular target: T7, SNTG2, Q9NY99
GRIP1_4, Q9Y3R0 = molecular target: T8, GRIP1_4, Q9Y3R0
SCRIB_1, Q14160 = molecular target: SCRIB_1, Q14160
TIAM2, Q8IVF5 = molecular target: T9, TIAM2, Q8IVF5
NHERF4_4, Q86UT5 = molecular target: NHERF4_4, Q86UT5
LNX1_3, Q8TBB1 = molecular target: LNX1_3, Q8TBB1
TJP3_3, O95049 = molecular target: T10, TJP3_3, O95049
HTRA4, P83105 = molecular target: T11, HTRA4, P83105
DLG4_2, P78352 = molecular target: DLG4_2, P78352
PARD3B_1, Q8TEW8 = molecular target: T12, PARD3B_1, Q8TEW8
FRMPD2_1, Q68DX3 = molecular target: FRMPD2_1, Q68DX3
LAP2, Q96RT1 = molecular target: LAP2, Q96RT1
Chain of LAP2, Q96RT1 (Q96RT1 other isoform, or with tags, fused parts or gaps): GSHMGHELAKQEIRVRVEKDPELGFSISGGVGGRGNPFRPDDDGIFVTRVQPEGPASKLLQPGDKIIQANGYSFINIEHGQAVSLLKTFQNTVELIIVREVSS

Chain of DLG4_3, P78352 (P78352 306-403): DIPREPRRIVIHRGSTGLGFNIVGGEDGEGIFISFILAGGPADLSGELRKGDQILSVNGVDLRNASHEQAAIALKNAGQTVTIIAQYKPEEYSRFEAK
Chain of FRMPD2_1, Q68DX3 (Q68DX3 770-861): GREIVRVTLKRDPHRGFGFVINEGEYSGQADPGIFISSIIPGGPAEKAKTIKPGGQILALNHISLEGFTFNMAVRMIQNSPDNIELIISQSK
Chain of SCRIB_1, Q14160 (Q14160 718-814): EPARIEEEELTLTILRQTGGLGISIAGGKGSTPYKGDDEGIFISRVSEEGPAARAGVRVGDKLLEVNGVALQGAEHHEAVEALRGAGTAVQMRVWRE
Chain of MAGI1_2, Q96QZ7 (Q96QZ7 456-580): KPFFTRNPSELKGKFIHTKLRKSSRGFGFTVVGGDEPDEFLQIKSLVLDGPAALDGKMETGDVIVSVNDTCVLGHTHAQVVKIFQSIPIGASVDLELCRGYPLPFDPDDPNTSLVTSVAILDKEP
Chain of GRID2IP_1, A4D2P6 (A4D2P6 1-87): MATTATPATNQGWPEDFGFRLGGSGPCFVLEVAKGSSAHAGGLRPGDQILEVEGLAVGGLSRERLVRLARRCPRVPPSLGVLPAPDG
Chain of GRASP, Q7Z6J2 (Q7Z6J2 96-193): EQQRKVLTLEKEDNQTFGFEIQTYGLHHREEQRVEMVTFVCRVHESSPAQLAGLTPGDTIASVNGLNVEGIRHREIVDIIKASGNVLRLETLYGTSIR
Chain of MAGI2_2, Q86UL8 (Q86UL8 410-522): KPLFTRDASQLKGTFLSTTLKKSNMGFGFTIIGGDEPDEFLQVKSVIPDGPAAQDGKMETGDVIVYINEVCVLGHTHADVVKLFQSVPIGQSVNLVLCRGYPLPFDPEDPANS
Chain of DLG4_2, P78352 (P78352 155-259): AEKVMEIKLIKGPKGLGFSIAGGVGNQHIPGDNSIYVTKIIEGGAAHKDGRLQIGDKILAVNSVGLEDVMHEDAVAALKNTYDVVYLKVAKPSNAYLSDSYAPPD
Chain of LNX1_3, Q8TBB1 (Q8TBB1 500-596): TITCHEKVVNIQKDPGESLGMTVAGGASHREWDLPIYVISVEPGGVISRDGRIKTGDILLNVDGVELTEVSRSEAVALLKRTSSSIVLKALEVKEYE
Chain of MAGI2_4, Q86UL8 (Q86UL8 772-865): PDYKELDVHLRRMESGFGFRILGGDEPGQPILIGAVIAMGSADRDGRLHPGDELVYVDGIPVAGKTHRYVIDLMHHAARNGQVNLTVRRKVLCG
Chain of NHERF4_4, Q86UT5 (Q86UT5 464-550): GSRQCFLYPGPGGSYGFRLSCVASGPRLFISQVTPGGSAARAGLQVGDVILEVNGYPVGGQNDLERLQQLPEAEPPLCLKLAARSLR
Chain of DLG4_1, P78352 (P78352 62-152): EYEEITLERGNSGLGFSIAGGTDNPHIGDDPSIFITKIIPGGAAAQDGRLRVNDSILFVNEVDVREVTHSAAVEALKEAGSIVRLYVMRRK

pKd (GRASP, Q7Z6J2)	pKd (PDZD7_3, Q9H5P4)	pKd (MAGI1_2, Q96QZ7)	pKd (DLG4_1, P78352)	pKd (DLG4_3, P78352)	pKd (MPDZ_10, O75970)	pKd (SNX27, Q96L92)	pKd (GRID2IP_1, A4D2P6)	pKd (SYNJ2BP, P57105)	pKd (SNTG1, Q9NSN8)	pKd (MAGI2_2, Q86UL8)	pKd (FRMPD1, Q5SYB0)	pKd (SNTB1, Q13884)	pKd (MAGI2_4, Q86UL8)	pKd (SNTG2, Q9NY99)	pKd (GRIP1_4, Q9Y3R0)	pKd (SCRIB_1, Q14160)	pKd (TIAM2, Q8IVF5)	pKd (NHERF4_4, Q86UT5)	pKd (LNX1_3, Q8TBB1)	Binder	further results
below the threshold	3.61	below the threshold	4.04	below the threshold	below the threshold	4.28	below the threshold	4.44	below the threshold	below the threshold	below the threshold	below the threshold	below the threshold	3.73	below the threshold	3.69	below the threshold	below the threshold	below the threshold	PKTPPTDTSV [KIR3DL3, Q8N743]	pKd (TJP3_3, O95049): below the threshold; pKd (HTRA4, P83105): below the threshold; pKd (DLG4_2, P78352): 4.22; pKd (PARD3B_1, Q8TEW8): below the threshold; pKd (FRMPD2_1, Q68DX3): below the threshold; pKd (LAP2, Q96RT1): below the threshold
below the threshold	3.71	below the threshold	3.56	below the threshold	below the threshold	5.29	below the threshold	3.51	below the threshold	below the threshold	below the threshold	4.07	below the threshold	3.75	below the threshold	5.2	below the threshold	below the threshold	below the threshold	TVASEKESVM [SLC1A5, Q15758]	pKd (TJP3_3, O95049): below the threshold; pKd (HTRA4, P83105): below the threshold; pKd (DLG4_2, P78352): below the threshold; pKd (PARD3B_1, Q8TEW8): 3.61; pKd (FRMPD2_1, Q68DX3): below the threshold; pKd (LAP2, Q96RT1): below the threshold
